In assay [1] the target is T1, extracellular region of human TIGIT fused to FLAG and GPI (hTIGIT-GPI), on the surface of NS0 cells (human).
T1 construct: The GPI signal is processed when the anchor is attached; also called NS0-hTIGIT cells
T1 chain: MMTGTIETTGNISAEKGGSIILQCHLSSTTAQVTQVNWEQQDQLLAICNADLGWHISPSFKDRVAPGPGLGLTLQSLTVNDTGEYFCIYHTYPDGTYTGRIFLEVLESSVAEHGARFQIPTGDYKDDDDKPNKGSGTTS
The assay is described as follows: flow cytometry on NS0-hTIGIT cells. On the procedure: Binding of HuTIG1-IgG1.AA to human TIGIT was also examined by flow cytometry. NS0-hTIGIT cells (8×10⁵ cells) were incubated in 160 μl of FACS Buffer (PBS containing 0.5% bovine serum albumin and 0.05% sodium azide) in the presence (or absence) of various concentrations of HuTIG1-IgG1.AA, starting at 10 μg/ml and serial 2-fold dilutions, for 20 min at 4° C. After washing with FACS Buffer, HuTIG1-IgG1.AA binding on NS0-hTIGIT cells were detected with PE-labeled goat anti-human IgG antibody in FACS Buffer. After incubation for 20 min and washing with FACS Buffer, the cells were subjected to flow cytometry using a FACScan flow cytometer (BD Biosciences, San Jose, Calif.) to obtain the mean channel fluorescence (MCF) at each antibody concentration. […] The EC₅₀ value was 60 ng/ml.
(In flow cytometry, cells or beads pass a laser one at a time.)

For a further assay, the target named is T2, I47A.
T2 construct: also called HA-tagged human TIGIT with mutation I47A, on CHO-K1 cells
T2 single chain: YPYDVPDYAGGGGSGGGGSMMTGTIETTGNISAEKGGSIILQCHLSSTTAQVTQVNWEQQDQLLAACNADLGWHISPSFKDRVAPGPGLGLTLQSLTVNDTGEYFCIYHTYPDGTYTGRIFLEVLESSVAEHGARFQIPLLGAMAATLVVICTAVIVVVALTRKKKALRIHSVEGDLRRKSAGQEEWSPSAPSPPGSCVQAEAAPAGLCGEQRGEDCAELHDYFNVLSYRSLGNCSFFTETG
The assay is described as follows: flow cytometry titration on CHO-K1 cells transiently expressing the HA-tagged TIGIT mutant, Alexa488 anti-human IgG detection, four-parameter fit of percent of control, nM is from the concentration axis and paragraph 252. On the procedure: (§1) For flow cytometry analysis of the anti-hTIGIT antibody binding epitope, HA-tagged human TIGIT proteins with or without single amino acid mutation were transiently transfected into CHO-K1 cells. After 24 hr, transfected cells were suspended in HBSS buffer (Thermo Fisher Scientific, Cat#14175095), and incubated with HuTIG1-IgG1.AA antibody at varying concentrations in 50 μL volume. After 1 hr incubation at 4° C., cells were washed and a second incubation with 50 μL Alexa488 conjugated anti-human IgG(H+L) secondary antibody (Thermo Fisher Scientific, Cat#A-11013) was performed to detect cells bound by antibody. Cells were incubated with an anti-HA antibody (Sigma, Cat# H7411) as a positive control, and non-transfected CHO-K1 cells were used as a negative control. The cells were analyzed on an Attune NxT Cytometer (Thermo Fisher Scientific) and the data were processed using FlowJo software. For each mutant, the saturating antibody binding MFI (mean fluorescence intensity) were normalized to 100% POC (percent of control), and no primary antibody binding control MFI were normalized to 0% POC. Data were then fit to a four parameter non-linear sigmoidal curve using GraphPad Prism 7 curve fitting using following formula: Y=Bottom+(Top−Bottom)/(1+10^{((Log EC}^₅₀^{-X)*HillSlope)}).
(§2) All of these residues co-locate to one discrete region on the front ([…] structure of the TIGIT IgV extracellular domain (FIG. 28).

A further assay addresses T3, T34A.
T3 construct: also called HA-tagged human TIGIT with mutation T34A, on CHO-K1 cells
T3 single chain: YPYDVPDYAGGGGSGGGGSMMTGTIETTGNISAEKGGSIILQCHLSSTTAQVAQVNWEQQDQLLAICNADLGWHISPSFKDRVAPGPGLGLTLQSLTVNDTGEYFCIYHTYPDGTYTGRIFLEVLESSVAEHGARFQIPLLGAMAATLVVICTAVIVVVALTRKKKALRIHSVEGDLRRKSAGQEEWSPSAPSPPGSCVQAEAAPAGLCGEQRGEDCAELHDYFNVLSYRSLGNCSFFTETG
The assay is described as above. On the procedure: as §1, §2

The next assay addresses T4, I88A.
T4 construct: also called HA-tagged human TIGIT with mutation I88A, on CHO-K1 cells
T4 single chain: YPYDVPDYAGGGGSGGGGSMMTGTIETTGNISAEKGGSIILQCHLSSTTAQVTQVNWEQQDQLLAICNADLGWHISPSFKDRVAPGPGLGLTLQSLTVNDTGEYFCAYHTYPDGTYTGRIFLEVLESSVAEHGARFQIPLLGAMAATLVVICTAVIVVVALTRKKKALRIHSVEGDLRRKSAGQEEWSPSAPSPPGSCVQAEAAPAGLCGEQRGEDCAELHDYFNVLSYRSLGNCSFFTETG
Described as above. On the procedure:
as §1, §2

The next assay addresses T5, T96A.
T5 construct: also called HA-tagged human TIGIT with mutation T96A, on CHO-K1 cells
T5 single chain: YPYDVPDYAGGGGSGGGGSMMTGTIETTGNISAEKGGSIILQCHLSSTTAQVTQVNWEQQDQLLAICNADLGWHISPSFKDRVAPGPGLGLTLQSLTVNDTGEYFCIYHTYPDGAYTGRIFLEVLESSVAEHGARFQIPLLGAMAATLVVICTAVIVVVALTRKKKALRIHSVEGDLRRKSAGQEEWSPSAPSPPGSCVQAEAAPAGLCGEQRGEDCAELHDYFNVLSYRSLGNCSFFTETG
The description is as above. On the procedure: as §1, §2

B1: HuTIG1-IgG1.AA (humanized IgG1/kappa form of TIG1, L234A/L235A) (antibody)
heavy: not shown
light: DIQMTQSPSSLSASVGDRVTITCRASKSISKYLAWYQQKPGKAPKLLIYSGSTLQSGVPSRFSGSGSGTDFTLTISSLQPEDFATYYCQQHNEYPWTFGGGTKVEIKRTVAAPSVFIFPPSDEQLKSGTASVVCLLNNFYPREAKVQWKVDNALQSGNSQESVTEQDSKDSTYSLSSTLTLSKADYEKHKVYACEVTHQGLSSPVTKSFNRGEC
notes: Mature full chains; also called humanized TIG1
Regarding B1, the concentration giving a half-maximal response (EC50) in assay [1] is 0.06 µg/mL; with I47A, 1270 pM; in the assay with T34A, 577 pM; with I88A, 591 pM; with T96A, 1360 pM.

The term EC50 denotes the midpoint of the concentration-response curve. Low values mean an effect from little substance, high ones a need for much substance.
